Positions of bridges follow the written chain, without caps; N, C: chain ends. Residues, ends and D or L forms follow the SMILES beside them. *: point of attachment. NOTA = O=C(O)CN1CCN(CC(=O)O)CCN(CC(=O)*)CC1; PEG4 = NCCOCCOCCOCCOCCC(=O)O
What was measured:
[1] = system: spontaneously developed PDAC; test: in vivo; format: in vivo, mouse; conditions: KPC mouse, PET 120 min postinjection; n = 5, mean ± SD
Protocol: (§1) Approximately 3.7 × 10^6 Bq (100 μCi) of ^18F‐S5 was intravenously injected to a mouse for PET imaging, and 2.5 mmol/kg of gadolinium‐diethylenetriamine pentaacetic acid was injected for enhanced MR imaging. After 120 min postinjection of ^18F‐S5, PET/MR imaging was obtained by using a hybrid 3.0T PET/MR scanner (uPMR 790; UIH, Shanghai, China).
(§2) However, in the PET/MR imaging, ^18F‐S5 produced high PET signals in the possible location of the tumor (Figure 2A). The uptake of ^18F‐S5 in tumor was quantified as 4.34 ± 1.16 %ID/g (a percentage of the injected dose per gram) (n = 5) and the tumor‐to‐muscle ratio was 4.32 ± 0.65 (Figure 2B). […] The overexpression of integrin α6 in the spontaneously developed PDAC tissue was confirmed using immunohistochemistry (Figure 2D). In addition, ^18F‐S5‐PET/MR imaging could also detect metastatic tumors in KPC, where ^18F‐S5 produced high PET signals in both of the PDAC lesions and the metastatic tumors in the abdominal cavity (Figure S4A‐D). […] Immunohistochemical analysis confirmed the formation of PanIN lesions in the pancreas and increased integrin α6 expression in lesion tissues (Figure 2H).
(§3) FIGURE 2 ^18F‐S5 PET/MR imaging in PDAC and PanIN mouse models. A, Representative cross‐sectional images of PET/MR imaging with ^18F‐S5 of KPC mouse (left) and the 3D image (right). B, Quantification of ^18F‐S5 uptake (%ID/g) by KPC mouse in tumor (4.34 ± 1.16), muscle (1.00 ± 0.17), liver (1.24 ± 0.33), and heart (2.38 ± 0.45), respectively. […] D, The development of PDAC in KPC mouse was confirmed by HE staining (left), and increased integrin α6 expression was confirmed by immunohistochemistry (right). E, Representative cross‐sectional images of PET/MR imaging of KC mouse (left) and the MIP reconstructed image (right). F, Quantification of ^18F‐S5 uptake (%ID/g) by KC mouse in PanIN tissue (2.99 ± 0.52), muscle (0.89 ± 0.13), liver (1.31 ± 0.22), and heart (2.43 ± 0.35), respectively. […] H, The development of PanIN in mice was confirmed by HE staining (left), and the overexpression of integrin α6 in the lesion was analyzed using immunohistochemistry (right) (red arrow: PanIN; black arrow: relatively normal pancreatic tissue) (mean ± SD, the difference was evaluated by Student's t‐test, *P < .05, **P < .01, ***P < .001)

in vivo = format: in vivo, mouse; conditions: mouse, in vivo, iv
Protocol: as §1, §2, §3

PanIN = test: in vivo; format: in vivo, mouse; conditions: KC mouse, PET 120 min postinjection; mean ± SD
Protocol: as §1, §2, §3

[2] = in vivo
Protocol: as §1

integrin α6 = target: T1, integrin α6 (Homo sapiens, UniProt P23229); test: Binding of Ala-mutated peptides by ELISA (alanine scanning of RWY); conditions: relative to RWY peptide; Figure 1D,E (ELISA and in vivo blocking)
T1 sequence (P23229 24-1130): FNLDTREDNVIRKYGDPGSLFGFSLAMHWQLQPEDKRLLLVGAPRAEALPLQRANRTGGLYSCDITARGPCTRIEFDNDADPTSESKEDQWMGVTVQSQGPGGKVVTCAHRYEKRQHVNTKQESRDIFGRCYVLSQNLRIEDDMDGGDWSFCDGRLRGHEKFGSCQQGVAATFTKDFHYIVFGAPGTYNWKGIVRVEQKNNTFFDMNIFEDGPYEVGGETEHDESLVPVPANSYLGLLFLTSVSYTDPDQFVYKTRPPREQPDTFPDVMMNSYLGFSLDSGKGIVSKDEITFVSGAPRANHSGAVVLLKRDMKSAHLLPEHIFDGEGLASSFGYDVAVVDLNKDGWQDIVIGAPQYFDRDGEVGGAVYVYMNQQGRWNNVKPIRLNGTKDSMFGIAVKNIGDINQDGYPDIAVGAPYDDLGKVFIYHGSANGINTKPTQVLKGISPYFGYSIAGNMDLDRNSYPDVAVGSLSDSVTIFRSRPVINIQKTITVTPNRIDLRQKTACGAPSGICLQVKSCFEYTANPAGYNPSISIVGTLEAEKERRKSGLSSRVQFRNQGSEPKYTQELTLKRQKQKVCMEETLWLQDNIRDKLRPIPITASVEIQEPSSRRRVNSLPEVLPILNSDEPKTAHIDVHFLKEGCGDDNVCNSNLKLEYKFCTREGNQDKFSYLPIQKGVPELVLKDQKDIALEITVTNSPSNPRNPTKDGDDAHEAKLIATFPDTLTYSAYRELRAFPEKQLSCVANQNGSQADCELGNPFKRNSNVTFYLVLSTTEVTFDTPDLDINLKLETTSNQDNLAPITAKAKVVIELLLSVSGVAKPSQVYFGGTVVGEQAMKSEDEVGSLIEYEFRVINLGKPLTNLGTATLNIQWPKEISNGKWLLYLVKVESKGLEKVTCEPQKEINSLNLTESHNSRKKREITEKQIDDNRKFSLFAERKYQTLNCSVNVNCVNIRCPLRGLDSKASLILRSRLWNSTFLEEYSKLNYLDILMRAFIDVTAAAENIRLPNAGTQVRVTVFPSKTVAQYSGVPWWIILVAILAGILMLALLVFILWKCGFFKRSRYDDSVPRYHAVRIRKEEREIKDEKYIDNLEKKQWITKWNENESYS
Excerpt: We selected integrin α6 as the target of PDAC as it was overexpressed in pancreatic cancer cells ^4 , ^5 and cancerous tissue of patients with PDAC ^4 , ^6 , ^7 with an overexpression rate up to 92%. ^4 Increased integrin α6 levels were associated with stronger PDAC cell invasiveness ^5 and poorer prognosis for patients. ^6 , ^7 Furthermore, the integrin α6β4 dimer was overexpressed in PanIN even at a stage as early as PanIN 1A. ^4 Here, we confirmed that integrin α6 was overexpressed in human PDAC (Figure 1A,B) and increased integrin α6 had poorer prognosis for PDAC patients (Figure 1C). Recently, a peptide CRWYDENAC (dubbed RWY) targeting integrin α6 has been identified ^8 and employed for nanotherapeutics of nasopharyngeal carcinoma ^8 and for PET imaging of hepatocellular carcinoma by our team. ^9 Here, we used the Ala scanning mutagenesis to modify the RWY peptide. R, W, and Y were the three key amino acids within the RWY peptide, since their replacement by an alanine reduced the cellular binding ability of this peptide, both in vitro and in vivo. […]
FIGURE 1 Increased and poorer prognosis of integrin α6 in PDAC and the optimization of a peptide targeting integrin α6. […] D, The binding affinities of seven Ala‐mutated peptides were analyzed by ELISA. […]

Sw1990 tumors = test: In vivo blocking assay of Cy5‐RWY by unlabeled peptides; conditions: i.v. 6 nmol Cy5‐RWY together with 6 μmol unlabeled peptide; mice bearing Sw1990 tumors
Protocol: FIGURE 1 Increased and poorer prognosis of integrin α6 in PDAC and the optimization of a peptide targeting integrin α6. […] D, The binding affinities of seven Ala‐mutated peptides were analyzed by ELISA. E, The in vivo blocking assays were performed via intravenous injection of 6 nmol of Cy5‐RWY together with 6 μmol of the unlabeled RWY peptide, or its scrambled peptide or a set of its alanine‐scanning mutant peptides into mice bearing Sw1990 tumors. […] F and G, Sw1990 cells were incubated with Cy5‐RWY and Cy5‐S5 at 37°C for 30 min, and the integrin α6‐binding affinities of Cy5‐RWY and Cy5‐S5 were analyzed by flow cytometric analysis (F); the fluorescence intensity of the S5 group presented as relative (1.41 ± 0.03) fold over RWY, indicating a higher tumor cell‐binding ability of S5. H and I To further investigate the in vivo tumor‐binding ability of the S5 peptide, Cy5‐S5, Cy5‐RWY, and Cy5‐CG7C (negative control) were synthesized and used in NIRF.

Molecule | uptake in tumor [1] [%ID/g] | tissue uptake at 2 h (in vivo; KC (LSL-Kras^G12D/+; Pdx1-Cre), uptake in heart) [%ID/g] | tissue uptake at 2 h (in vivo; KC (LSL-Kras^G12D/+; Pdx1-Cre), uptake in liver) [%ID/g] | tissue uptake at 2 h (in vivo; KC (LSL-Kras^G12D/+; Pdx1-Cre), uptake in muscle) [%ID/g] | tissue uptake at 2 h (in vivo; KPC (LSL-Kras^G12D/+; Pdx1-Cre; Trp53^fl/fl), uptake in heart) [%ID/g] | tissue uptake at 2 h (in vivo; KPC (LSL-Kras^G12D/+; Pdx1-Cre; Trp53^fl/fl), uptake in liver) [%ID/g] | tissue uptake at 2 h (in vivo; KPC (LSL-Kras^G12D/+; Pdx1-Cre; Trp53^fl/fl), uptake in muscle) [%ID/g] | uptake in PanIN tissue (PanIN) [%ID/g] | uptake in tumor tissues compared with other tissues and organs [2] | enhanced tumor binding ability (integrin α6) | blocking effect on Cy5‐RWY (Sw1990 tumors)
C[C@@H]1NC(=O)[C@H](CC(N)=O)NC(=O)[C@H](C)NC(=O)[C@H](CC(=O)O)NC(=O)[C@H](Cc2ccc(O)cc2)NC(=O)[C@H](Cc2c[nH]c3ccccc23)NC(=O)[C@H](CCCNC(=N)N)NC(=O)[C@@H](NC(=O)CCOCCOCCOCCOCCNC(=O)CN2CCN(CC(=O)O)CCN(CC(=O)O)CC2)CSSC[C@@H](C(=O)O)NC1=O [^18F‐S5] ({NOTA-PEG4}-CRWYDANAC-OH; disulfide 1-9 (inferred); N-terminus and C-terminus assumed) | 4.34 ± 1.16 | 2.43 ± 0.35 | 1.31 ± 0.22 | 0.89 ± 0.13 | 2.38 ± 0.45 | 1.24 ± 0.33 | 1 ± 0.17 | 2.99 ± 0.52 | the highest among all collected tissues and organs except for the kidney | – | –
CRWYDANAC [S5, peptide …, alanine substitution of E in RWY] | – | – | – | – | – | – | – | – | – | approximately 1.5 fold | highest blocking effect

Source: publication PMC7449243, “An optimized integrin α6‐targeted peptide for positron emission tomography/magnetic resonance imaging of pancreatic cancer and its precancerous lesion” (Clinical and Translational Medicine, 2020)
